Test results from the supplement of paper PMC10724198.
± gives the standard deviation of the averaged measurements.

The sequences below were run on Saccharomyces cerevisiae (assay: protein stability index of tFT-peptide fusion (C-terminal peptide) (PSI (0-1 scale)); higher = more stable (slower turnover)). Conditions: genetic background: wild type; temperature: 30 C.
Description: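 MPS profiling in S. cerevisiae of the tFT-X12 degron library: putative degron peptides plus stable controls, 12 aa, fused to the C-terminus of a sfGFP-mCherry timer. Cells are FACS-sorted into 8 mCherry/sfGFP bins and deep-sequenced. PSI runs from 0 (unstable) to 1 (stable). Backgrounds are wild type, das1Δ and doa10Δ at 30 °C, and wild type, das1Δ, cdc34-1 and cdc53-1 at 37 °C; 2-3 technical replicates each.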

Sequence | protein stability index
WISDRCPSVLCY | 0.157 ± 0.028
WLPFFPLSLRGV | 0.436 ± 0.048
WLWFVGCLAAPL | 0.536 ± 0.04
WQGLSGSPILVI | 0.241 ± 0.048
WQILVRLIDFYT | 0.338 ± 0.0092
WSSWFLWVIFRL | 0.289 ± 0.035
WSWCLDVVCFTS | 0.439 ± 0.011
WVGWVVVLGCVG | 0.282 ± 0.018
WVRIIIKLRASL | 0.253 ± 0.011
WVSFFILYCVYR | 0.237 ± 0.018
WWADRLVGVCIV | 0.422 ± 0.023
WYYTWKQLVMIV | 0.0263 ± 0.0054
YARFWYSKAFIC | 0.115 ± 0.012
YCILGSYRLCVG | 0.252 ± 0.033
YCSIQIQLVYGI | 0.312 ± 0.013
YFFVCYFSLLVF | 0.119 ± 0.016
YFYIRLGIAYMM | 0.206 ± 0.019
YILRLMMEGICL | 0.409 ± 0.0083
YLFFVCLHLKAG | 0.206 ± 0.018
YLRVRRPGSALV | 0.624 ± 0.0081
YNKIRNNEKKMT | 0.27 ± 0.055
YPSCPINFICLC | 0.308 ± 0.037
YRNVLLVLNYWS | 0.406 ± 0.022
YSIHYLRFFSLF | 0.0874 ± 0.015
YSMLGKLVRLVT | 0.2 ± 0.013
YVCLVWHRNFFS | 0.155 ± 0.025
YVSSFSLVVLLS | 0.125 ± 0.014
YVVCFFFKLFYF | 0.244 ± 0.025
YVVYLQVCWMRS | 0.104 ± 0.035

Same assay, conditions: genetic background: wild type; temperature: 37 C

Sequence | protein stability index
WFIFTITSVAGL | 0.0325 ± 0.011
WFLRLVGAVFAL | 0.551 ± 0.032
WFVLYAEVMGFW | 0.409 ± 0.024
WGRAADRRRRLG | 0.344 ± 0.018
WGRENLTRVKLE | 0.424 ± 0.035
WILIGVRFSCFG | 0.276 ± 0.018
WISDRCPSVLCY | 0.184 ± 0.017
WLPFFPLSLRGV | 0.5 ± 0.0093
WLWFVGCLAAPL | 0.5957 ± 0.0016
WQGLSGSPILVI | 0.334 ± 0.013
WQILVRLIDFYT | 0.4889 ± 0.00098
WSSWFLWVIFRL | 0.288 ± 0.035
WSWCLDVVCFTS | 0.531 ± 0.024
WVGWVVVLGCVG | 0.449 ± 0.022
WVRIIIKLRASL | 0.345 ± 0.034
WVSFFILYCVYR | 0.378 ± 0.011
WWADRLVGVCIV | 0.5359 ± 0.00088
WYYTWKQLVMIV | 0.0433 ± 0.021

Sequence | protein stability index
YARFWYSKAFIC | 0.169 ± 0.0034
YCILGSYRLCVG | 0.427 ± 0.012
YCSIQIQLVYGI | 0.396 ± 0.011
YFFVCYFSLLVF | 0.168 ± 0.03
YFYIRLGIAYMM | 0.264 ± 0.015
YILRLMMEGICL | 0.464 ± 0.022
YLFFVCLHLKAG | 0.3494 ± 0.00053
YLRVRRPGSALV | 0.7277 ± 0.0017
YNKIRNNEKKMT | 0.457 ± 0.043
YPSCPINFICLC | 0.499 ± 0.0051
YRNVLLVLNYWS | 0.51 ± 0.026
YSIHYLRFFSLF | 0.0998 ± 0.011
YSMLGKLVRLVT | 0.374 ± 0.015
YVCLVWHRNFFS | 0.228 ± 0.076
YVSSFSLVVLLS | 0.217 ± 0.017
YVVCFFFKLFYF | 0.341 ± 0.024
YVVYLQVCWMRS | 0.186 ± 0.024

What follows are sequences tested on Saccharomyces cerevisiae in the same assay as above. Conditions: genetic background: das1 deletion; temperature: 30 C.
Description: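 MPS profiling in S. cerevisiae of the yeast C-terminome library: the last 12 aa of each annotated ORF are fused to the C-terminus of a sfGFP-mCherry timer, after a GGGS linker. Cells are FACS-sorted into 8 mCherry/sfGFP bins and deep-sequenced. PSI runs from 0 (unstable) to 1 (stable); wild type and das1Δ backgrounds, two technical replicates each.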

Sequence | protein stability index
AAANILFSDHAD [RAD23 C-terminal 12 aa] | 0.739 ± 0.032
AAGVGSVHGINR [COY1 C-terminal 12 aa] | 0.7 ± 0.03
AAISFKEAPRSD [ANB1 C-terminal 12 aa] | 0.723 ± 0.037
AARPCLEGSVAP [YOR050C C-terminal 12 aa] | 0.686 ± 0.01
ADETVDFYVYDE [SWD2 C-terminal 12 aa] | 0.744 ± 0.027
AEFLGSFDELVL [EEB1 C-terminal 12 aa] | 0.72333 ± 5e-06
AEIISVRQVDQS [GIT1 C-terminal 12 aa] | 0.673 ± 0.017
AESDDKSDNYGA [PRP45 C-terminal 12 aa] | 0.689 ± 0.032
AETLLSQRSRDR [DNF2 C-terminal 12 aa] | 0.721 ± 0.028
AGFGCLDSIILY [GSH2 C-terminal 12 aa] | 0.7068 ± 0.0036
AHRENIAFPPQF [YHR033W C-terminal 12 aa] | 0.739 ± 0.0092
AIDTLLKMSSSD [SRL3 C-terminal 12 aa] | 0.703 ± 0.03
AIFLFLVGLFMK [UBC6 C-terminal 12 aa] | 0.289 ± 0.011
AKAGSTPKFRTE [YNL050C C-terminal 12 aa] | 0.6897 ± 0.0035
AKDFLEKRGISK [PAM18 C-terminal 12 aa] | 0.711 ± 0.0047
AKFDGHAKTCHI [YBR051W C-terminal 12 aa] | 0.717 ± 0.021
AKKTNKLALTHV [SEC26 C-terminal 12 aa] | 0.7167 ± 0.0064
ALAFSKIPSVFL [YMR153C-A C-terminal 12 aa] | 0.722 ± 0.035
ALDKYLIEIHHW [NPR3 C-terminal 12 aa] | 0.718 ± 0.041
ALGRKTSNGGRI [MKS1 C-terminal 12 aa] | 0.7161 ± 0.004
AMSARKLSAARK [PCH2 C-terminal 12 aa] | 0.677 ± 0.015
ANLVYMKADVFC [HTD2 C-terminal 12 aa] | 0.581 ± 0.012
ANTDKNNNPPGN [SNG1 C-terminal 12 aa] | 0.698 ± 0.016
APHVLNDLLLKF [PGA1 C-terminal 12 aa] | 0.7108 ± 0.0037
APRKEILACSDL [YOR392W C-terminal 12 aa] | 0.718 ± 0.029
AQAEVIRGLQSL [CAP2 C-terminal 12 aa] | 0.682 ± 0.023
